# Experimental data taken from the supplement of paper PMC10724198.
# ± gives the standard deviation of the averaged measurements.
# System: Saccharomyces cerevisiae
# Experiment: protein stability index of tFT-peptide fusion (C-terminal peptide) (PSI (0-1 scale)); higher = more stable (slower turnover)
# Conditions: genetic background: wild type; temperature: 30 C
# 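Also: PSI is a weighted mean of sequencing reads over stability bins, variants kept only with over 10 reads, mCherry proximal and sfGFP distal, peptide attached via GGGS linker.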
row,Sequence,protein stability index
1,RRPQPPHKTAMP,0.701 ± 0.078
2,RRRQAEEDERNG,0.658 ± 0.07
3,RRRTDDSTPGRA,0.686 ± 0.025
4,RRSSLGIYWIYS,0.61 ± 0.037
5,RRTTGLGWSGRP,0.644 ± 0.025
6,RRVNDLGPPMRN,0.779 ± 0.092
7,RRVRRRRTGGAW,0.669 ± 0.005
8,RRVVIVSGWGWG,0.591 ± 0.064
9,RRWSPPGLGCIE,0.735 ± 0.019
10,RSETGYGTSWGA,0.627 ± 0.026
11,RSFRCWVQGYCG,0.654 ± 0.044
12,RSGLARPSPLTR,0.67445 ± 0.00024
13,RSGVSCPRVDDR,0.643 ± 0.05
14,RSGWRLLHLTTL,0.613 ± 0.013
15,RSHPTPQAHPSA,0.728 ± 0.051
16,RSKPIQAIPNPV,0.69 ± 0.03
17,RSLRLPPRTPLP,0.652 ± 0.04
18,RSLVAATLSSLG,0.735 ± 0.045
19,RSPNSSPPPSIS,0.648 ± 0.014
20,RSPPHSNLAHCI,0.684 ± 0.037
21,RSPPPVPELTRL,0.7042 ± 0.0051
22,RSPYSSLHNPLC,0.706 ± 0.016
23,RSRSIPTTLCLP,0.655 ± 0.026

row,Sequence,protein stability index
1,RSSLAVSTKVER,0.639 ± 0.02
2,RSSPPPRHDPSP,0.696 ± 0.088
3,RSSRGGFAFVYR,0.676 ± 0.03
4,RSSVTIIGDINK,0.619 ± 0.016
5,RSTGFHRVSCGI,0.72 ± 0.06
6,RSTTRSTLSLHV,0.701 ± 0.021
7,RSVIEHKMRKKR,0.682 ± 0.026
8,RTAYLLRCLTTD,0.681 ± 0.026
9,RTGKVKNINISI,0.71064 ± 0.00038
10,RTHRKNRRYKKN,0.639 ± 0.0072
11,RTKLFGIVGRQL,0.659 ± 0.036
12,RTLWGYCPRSPL,0.718 ± 0.021
13,RTRKARTHGRAQ,0.679 ± 0.0092
14,RTSEAGKQHEWK,0.695 ± 0.0074
15,RTSKSCVEFTMG,0.661 ± 0.011
16,RTTAGINAFPGV,0.6184 ± 0.0051
17,RTTSFVLSYRRE,0.66 ± 0.019
18,RTWDNTRDLDEL,0.656 ± 0.019
19,RVCCGVKDSEES,0.619 ± 0.0062
20,RVCFSLGAEFSF,0.665 ± 0.055
21,RVCVERFDSLTL,0.733 ± 0.08
22,RVDAWLEGKTVR,0.734 ± 0.02
23,RVGAVCWSIGLL,0.68 ± 0.03

row,Sequence,protein stability index
1,RVGWCGGGRGGR,0.658 ± 0.048
2,RVGWCPCTGDRR,0.663 ± 0.019
3,RVHRSVVGYRRC,0.611 ± 0.025
4,RVKMEFGRYRIF,0.52266 ± 0.0005
5,RVKRTGLGVWGF,0.649 ± 0.033
6,RVLCLCATSKSR,0.672 ± 0.016
7,RVPGGLPCRPSL,0.775 ± 0.041
8,RVQLPSRITQKA,0.596 ± 0.023
9,RVQMTTHGCLIS,0.766 ± 0.15
10,RVRLSLDSPLGL,0.684 ± 0.044
11,RVVHKIFGRRVT,0.6873 ± 0.0049
12,RVWNRHWMGASS,0.776 ± 0.084
13,RVWSMYCSEANG,0.666 ± 0.017
14,RVWYNVGEGPVR,0.699 ± 0.0085
15,RWAQVAEGGEGR,0.732 ± 0.099
16,RWARGGSRGGGG,0.703 ± 0.044
17,RWCEWYDMNTII,0.636 ± 0.02
18,RWGVFRSLPSPS,0.622 ± 0.17
19,RWGVGGSVSFWW,0.7 ± 0.047
20,RWGVRGAIHSDL,0.6841 ± 0.0065
21,RWSVIHARLLSP,0.846 ± 0.19
22,RWSYCLVFSLGL,0.532 ± 0.015
23,RWTLMMAIIRQR,0.559 ± 0.024

row,Sequence,protein stability index
1,RWWGDEAHRDGA,0.81 ± 0.049
2,RYANGVLHIGSN,0.659 ± 0.042
3,RYCIRDNKSNRN,0.705 ± 0.051
4,RYENRGRMKRER,0.676 ± 0.042
5,RYKCSQWHNGLT,0.767 ± 0.048
6,RYKSVPLHCISN,0.671 ± 0.022
7,RYNPPRGIHNDL,0.651 ± 0.043
8,RYPSRGQFGPSP,0.691 ± 0.019
9,RYRGPIPHEHTC,0.652 ± 0.085
10,RYSLMRAVRDRL,0.775 ± 0.17
11,SAASLWSGFRYG,0.68 ± 0.0085
12,SACAPSPPSPSP,0.749 ± 0.015
13,SACRSVPGYVAG,0.672 ± 0.046
14,SAFLSFLRLVFL,0.632 ± 0.011
15,SAFLSFPFLSPF,0.705 ± 0.011
16,SAGIRPFIQVHI,0.653 ± 0.019
17,SAGLLFFSFPPL,0.7873 ± 0.0067
18,SAGYFYSWNSSD,0.708 ± 0.028
19,SAIALGCEGVYP,0.6853 ± 0.0012
20,SAMIKRIIGMHY,0.634 ± 0.048
21,SANSGVRHMHFW,0.729 ± 0.058
22,SAPAFPPRPPPT,0.675 ± 0.025
23,SAPEPTISKLLP,0.603 ± 0.027

row,Sequence,protein stability index
1,SAPPLPLSPPPS,0.739 ± 0.076
2,SAPRPPPLPPSP,0.68 ± 0.068
3,SARECSVRTPHN,0.711 ± 0.061
4,SASPLRPPFLLL,0.635 ± 0.09
5,SATDARPPMKSP,0.735 ± 0.069
6,SCEIDKMYLPLR,0.701 ± 0.031
7,SCFTSLLGRRDG,0.784 ± 0.12
8,SCGCCGVLFQGV,0.846 ± 0.2
9,SCGKGVGRWRLG,0.6721 ± 0.0029
10,SCHVRPPVPRPS,0.663 ± 0.018
11,SCLALLSLLIDF,0.57 ± 0.021
12,SCNLYVGQVKSG,0.649 ± 0.036
13,SCPQSSLASVYA,0.529 ± 0.029
14,SCPRASSSSLTA,0.671 ± 0.07
15,SCRAIIDCMYNT,0.611 ± 0.067
16,SCSDPPSPLPLS,0.686 ± 0.0088
17,SCSGVHYLGSSL,0.679 ± 0.023
18,SCVWVLPLGFLR,0.575 ± 0.058
19,SDCWGAIIGCSG,0.677 ± 0.027
20,SDPGRLVLKIRR,0.715 ± 0.014
21,SDSIVTGCLKYP,0.696 ± 0.014
22,SEARCVGSVWGG,0.757 ± 0.098
23,SEKGPRRSRVWD,0.745 ± 0.046

row,Sequence,protein stability index
1,SEKILCTGECAA,0.619 ± 0.07
2,SEKIRDQQPTPA,0.671 ± 0.044
3,SEKRIGAGKDSE,0.688 ± 0.011
4,SENNLKHEKVIE,0.735 ± 0.22
5,SERERYKKNEKV,0.643 ± 0.0017
6,SEVISMSDDLGR,0.633 ± 0.087
7,SFASLSFDTASF,0.675 ± 0.0086
8,SFCCISSFPCWR,0.751 ± 0.016
9,SFDFRKGDPTSD,0.667 ± 0.02
10,SFGGGLIGAGVT,0.698 ± 0.082
11,SFHCFFTTSWYS,0.701 ± 0.11
12,SFLSLLLLSSSR,0.7 ± 0.012
13,SFMYCDLLLFGS,0.59 ± 0.068
14,SFPLLFPVSSRL,0.8641 ± 0.0077
15,SFPLSPPSLPSL,0.781 ± 0.1
16,SFPPLCLSFPVF,0.65 ± 0.02
17,SFPYPCFPPPPF,0.78 ± 0.056
18,SFSLPPSSSPPT,0.725 ± 0.1
19,SFSPNRAVSFST,0.727 ± 0.082
20,SFSPSIHLLSTL,0.677 ± 0.045
21,SFTFSFWRFSPR,0.676 ± 0.019
22,SFTYVFFSLSRR,0.663 ± 0.019
23,SFVFRLGEVGSS,0.603 ± 0.12

row,Sequence,protein stability index
1,SFVFVCDGGSRG,0.669 ± 0.017
2,SFVVAVALGRLR,0.5734 ± 0.003
3,SFVVFGSFFCFC,0.572 ± 0.018
4,SGAATSRRGLCS,0.672 ± 0.013
5,SGAGAMPPCSLP,0.697 ± 0.029
6,SGCGGKFGCALR,0.74 ± 0.045
7,SGCRLGCASVVQ,0.611 ± 0.044
8,SGGGAGKRVCEG,0.704 ± 0.015
9,SGGGELGATSGG,0.691 ± 0.031
10,SGGGGGGQVAVG,0.739 ± 0.1
11,SGGISGCPPPVF,0.689 ± 0.036
12,SGGRTSRREGGR,0.643 ± 0.075
13,SGGSKAGGVVRI,0.63 ± 0.039
14,SGIIVSPAVDMY,0.667 ± 0.0067
15,SGIKGENKIKEK,0.681 ± 0.0097
16,SGILRSLAYPPD,0.6142 ± 0.0035
17,SGKFGACVDRGI,0.7236 ± 0.00012
18,SGLRPGAGDCSA,0.611 ± 0.07
19,SGPSSIGSSCMS,0.663 ± 0.023
20,SGQVFADGSYAD,0.699 ± 0.015
21,SGRAALARVSPT,0.694 ± 0.028
22,SGRCGGESNDAE,0.626 ± 0.012
